In paper PMC9596277:

What was measured:
[1] = biological target: commercially available palivizumab (Synagis) (human); assay: SPR; same set-up as the kinetic SPR (palivizumab captured on Protein A, FcγRIIIA injected); value told as steady state binding
[2] = biological target: afucosylated palivizumab glycoform monogalactosylated at the α3 antenna (G1(3)) (human); assay: SPR; Biacore T200, 25°C, PBS with 0.05% Tween 20 and 3.4 mM EDTA; palivizumab analogues captured on immobilised Protein A (CM-5); FcγRIIIA injected, single-cycle kinetics, 2.3 nM to 0.56 µM; 1:1 binding model, KD from the ratio of the rate constants; three repeats
[3] = biological target: afucosylated agalactosylated (G0) palivizumab glycoform (human); assay: as above
[4] = biological target: afucosylated palivizumab glycoform monogalactosylated at the α6 antenna (G1(6)) (human); assay: as above
[5] = biological target: digalactosylated afucosylated (G2) palivizumab glycoform (human); assay: as above
[6] = biological target: FcγRIIIa (CD16A) F176 on NK92-GFP-CD16A cells (F variant) (human) (UniProt P08637); assay: flow cytometry on cells; NK92-GFP-CD16A cells (V or F variant) with 2.5-fold serial dilutions of palivizumab glycoforms in 1% BSA/PBS, 4°C, 30 min; detected with Alexa Fluor 647 anti-human IgG F(ab')2-specific fragment; % GFP+AF647+ cells
[7] = biological target: FcγRIIIa (CD16A) V176 on NK92-GFP-CD16A cells (V variant) (human) (UniProt P08637)

Chain of digalactosylated afucosylated (G2) palivizumab glycoform (human) (heavy, as listed by the source, chain 1 of 2): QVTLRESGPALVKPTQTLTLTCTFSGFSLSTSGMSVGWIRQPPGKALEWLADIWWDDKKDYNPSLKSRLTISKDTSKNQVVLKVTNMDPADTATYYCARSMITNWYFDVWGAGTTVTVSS
Chain of digalactosylated afucosylated (G2) palivizumab glycoform (human) (light, as listed by the source, chain 2 of 2): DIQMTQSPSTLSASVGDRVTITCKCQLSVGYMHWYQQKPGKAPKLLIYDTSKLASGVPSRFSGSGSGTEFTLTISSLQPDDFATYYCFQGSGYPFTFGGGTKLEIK
Chain of afucosylated palivizumab glycoform monogalactosylated at the α6 antenna (G1(6)) (human) (heavy, as listed by the source, chain 1 of 2): as the sequence (heavy, as listed by the source, chain 1 of 2) above
Chain of afucosylated palivizumab glycoform monogalactosylated at the α6 antenna (G1(6)) (human) (light, as listed by the source, chain 2 of 2): as the sequence (light, as listed by the source, chain 2 of 2) above
Chain of afucosylated agalactosylated (G0) palivizumab glycoform (human) (heavy, as listed by the source, chain 1 of 2): as the sequence (heavy, as listed by the source, chain 1 of 2) above
Chain of afucosylated agalactosylated (G0) palivizumab glycoform (human) (light, as listed by the source, chain 2 of 2): as the sequence (light, as listed by the source, chain 2 of 2) above
Chain of afucosylated palivizumab glycoform monogalactosylated at the α3 antenna (G1(3)) (human) (heavy, as listed by the source, chain 1 of 2): as the sequence (heavy, as listed by the source, chain 1 of 2) above
Chain of afucosylated palivizumab glycoform monogalactosylated at the α3 antenna (G1(3)) (human) (light, as listed by the source, chain 2 of 2): as the sequence (light, as listed by the source, chain 2 of 2) above
Chain of commercially available palivizumab (Synagis) (human) (heavy, as listed by the source, chain 1 of 2): as the sequence (heavy, as listed by the source, chain 1 of 2) above
Chain of commercially available palivizumab (Synagis) (human) (light, as listed by the source, chain 2 of 2): as the sequence (light, as listed by the source, chain 2 of 2) above

| Kd [2] [nM] | Kd [3] [nM] | Kd [4] [nM] | Kd [5] [nM] | maximum percent of cells bound [6] [%] | Substance | ADCC reporter assay (Jurkat T-cell luciferase reporter cells, CD16A V variant; RSV-infected Hep2 cells), activity against the G0 glycoform [7] [fold] | further results |
| --- | --- | --- | --- | --- | --- | --- | --- |
| 60 | 60 | 25 to 31 | 25.6 | – | FcγRIIIA CD16A low binding (F) variant, National Research Council (Canada) (from UniProt P08637 17-254) (receptor) | – | – |
| – | – | – | – | 30 | afucosylated agalactosylated (G0) palivizumab glycoform (antibody) | – | – |
| – | – | – | – | 30 | afucosylated palivizumab glycoform monogalactosylated at the α3 antenna (G1(3)) (antibody) | – | – |

The next lines start with the substance.

| Substance | Kd [2] [nM] | Kd [3] [nM] | Kd [4] [nM] | Kd [5] [nM] | maximum percent of cells bound [6] [%] | ADCC reporter assay (Jurkat T-cell luciferase reporter cells, CD16A V variant; RSV-infected Hep2 cells), activity against the G0 glycoform [7] [fold] | further results |
| --- | --- | --- | --- | --- | --- | --- | --- |
| FcγRIIIA CD16A high binding (V) variant, National Research Council (Canada) (from UniProt P08637 17-254) (receptor) | 110 | 110 | 6 | 5.9 | – | – | Kd [1]: 1000 nM |
| afucosylated palivizumab glycoform monogalactosylated at the α6 antenna (G1(6)) (antibody) | – | – | – | – | – | 2 | – |
| digalactosylated afucosylated (G2) palivizumab glycoform (antibody) | – | – | – | – | – | 2 | – |
